Measurements from patent US20130315910A1 (Xencor, published 2013).

Key:
[1] = biological target: T1, human FcγRIIb receptor protein (R&D Systems) (human, UniProt P31994 46-217); assay: SPR
T1 construct: Bought protein injected over captured antibody in Biacore; also called CD32b
T1 sequence (looked up): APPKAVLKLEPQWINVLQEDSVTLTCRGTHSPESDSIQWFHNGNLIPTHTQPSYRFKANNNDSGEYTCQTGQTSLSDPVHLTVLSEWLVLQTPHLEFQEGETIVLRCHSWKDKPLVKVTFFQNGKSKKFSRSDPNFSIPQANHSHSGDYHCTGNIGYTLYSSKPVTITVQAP

[2] = biological target: T2, human FcγRI receptor protein (R&D Systems) (human, UniProt P12314 16-288); assay: SPR
T2 construct: also called soluble FcγRI; solFcγRI
T2 sequence (P12314 16-288 limits assumed): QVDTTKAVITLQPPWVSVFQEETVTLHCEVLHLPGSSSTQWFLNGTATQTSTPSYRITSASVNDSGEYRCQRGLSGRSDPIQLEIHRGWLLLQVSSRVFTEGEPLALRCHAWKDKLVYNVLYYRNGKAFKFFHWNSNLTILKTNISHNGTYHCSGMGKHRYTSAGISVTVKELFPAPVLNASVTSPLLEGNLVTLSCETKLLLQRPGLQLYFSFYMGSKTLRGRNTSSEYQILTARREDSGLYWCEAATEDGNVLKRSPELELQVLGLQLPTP

[3] = biological target: T3, human FcγRIIa (131R), His- and GST-tagged (human, UniProt P12318 34-217); assay: SPR
T3 construct: Expressed in HEK293T cells, purified by nickel chromatography; also called R131 FcγRIIa; not shown: 6xHis and GST tags of the pTT5 vector
T3 sequence (looked up): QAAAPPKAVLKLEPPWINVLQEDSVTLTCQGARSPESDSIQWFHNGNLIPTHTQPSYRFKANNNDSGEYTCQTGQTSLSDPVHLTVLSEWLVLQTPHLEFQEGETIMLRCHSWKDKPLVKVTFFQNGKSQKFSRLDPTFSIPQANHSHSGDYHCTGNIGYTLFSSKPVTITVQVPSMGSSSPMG

[4] = biological target: T4, human FcγRIIIa (158V), His- and GST-tagged (human, UniProt P08637 17-208); assay: SPR
T4 construct: also called V158 FcγRIIIa; VIIIa; not shown: 6xHis and GST tags of the pTT5 vector
T4 sequence (P08637 17-208 F176V): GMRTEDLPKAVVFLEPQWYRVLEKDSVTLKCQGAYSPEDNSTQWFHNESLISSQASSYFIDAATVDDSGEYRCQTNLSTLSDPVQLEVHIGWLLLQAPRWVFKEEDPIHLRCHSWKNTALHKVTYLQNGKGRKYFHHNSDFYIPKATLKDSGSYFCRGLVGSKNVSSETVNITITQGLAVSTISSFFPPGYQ

mFcγRIIb [5] = biological target: T5, mFcγRIIb (Mus musculus, UniProt P08101); assay: SPR
T5 construct: extracellular region, C-terminal His- and GST-tag; also called mouse FcγRII
T5 sequence (receptor extracellular region, looked up): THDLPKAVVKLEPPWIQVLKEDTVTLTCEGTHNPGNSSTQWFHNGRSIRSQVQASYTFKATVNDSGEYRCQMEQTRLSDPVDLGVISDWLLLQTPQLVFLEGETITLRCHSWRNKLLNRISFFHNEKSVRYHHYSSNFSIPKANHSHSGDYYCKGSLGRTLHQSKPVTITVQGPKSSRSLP

cynoFcγRIIb [6] = biological target: T6, cynoFcγRIIb (Macaca fascicularis, UniProt A0A140HDP4); assay: SPR
T6 construct: extracellular region, C-terminal His- and GST-tag; also called cynomolgus monkey FcγRIIb
T6 sequence (receptor extracellular region): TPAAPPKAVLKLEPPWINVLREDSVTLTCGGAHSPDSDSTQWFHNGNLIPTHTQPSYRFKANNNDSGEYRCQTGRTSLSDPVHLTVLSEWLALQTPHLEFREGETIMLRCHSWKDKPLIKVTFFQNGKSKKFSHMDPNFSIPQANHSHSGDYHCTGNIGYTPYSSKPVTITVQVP

cynoFcγRIIIa [7] = biological target: T7, cynoFcγRIIIa (Macaca fascicularis, UniProt Q8SPW2); assay: SPR
T7 construct: extracellular region, C-terminal His- and GST-tag; also called cynomolgus monkey FcγRIIIa
T7 sequence (Q8SPW2 17-208): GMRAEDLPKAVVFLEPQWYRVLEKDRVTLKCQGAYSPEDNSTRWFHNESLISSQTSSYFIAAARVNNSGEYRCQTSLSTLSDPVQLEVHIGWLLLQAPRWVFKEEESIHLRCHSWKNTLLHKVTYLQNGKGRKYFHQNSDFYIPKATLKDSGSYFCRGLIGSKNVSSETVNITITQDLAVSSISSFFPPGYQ

mFcγRIV [8] = biological target: T8, mFcγRIV; assay: SPR, off-rate
T8 construct: also called mouse FcγRIV; not shown: C-terminal His and GST tags (named only on our card)
T8 chain: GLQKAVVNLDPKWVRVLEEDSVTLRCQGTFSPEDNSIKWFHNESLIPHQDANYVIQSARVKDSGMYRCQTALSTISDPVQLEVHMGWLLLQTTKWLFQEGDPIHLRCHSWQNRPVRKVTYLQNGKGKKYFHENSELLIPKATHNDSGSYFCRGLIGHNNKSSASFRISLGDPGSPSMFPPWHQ
Protocol: (§1) Variants were screened for receptor affinity using Biacore™ technology, also referred to as Biacore herein, a surface plasmon resonance (SPR) based technology for studying biomolecular interactions in real time. SPR measurements were performed using a Biacore 3000 instrument (Biacore, Piscataway, N.J.). A protein A/G (Pierce Biotechnology) CM5 biosensor chip (Biacore) was generated using a standard primary amine coupling protocol. All measurements were performed using HBS-EP buffer (10 mM HEPES pH 7.4, 0.15 M NaCl, 3 mM EDTA, 0.005% vol/vol surfactant P20, Biacore). Antibodies at 20 nM or 50 nM in HBS-EP buffer were immobilized on the protein A/G surface and FcγRs were injected. After each cycle, the surface was regenerated by injecting glycine buffer (10 mM, pH 1.5). Data were processed by zeroing time and response before the injection of FcγR and by subtracting appropriate nonspecific signals (response of reference channel and injection of running buffer). Kinetic analyses were performed by global fitting of binding data with a 1:1 Langmuir binding model using BIAevaluation software (Biacore).
(§2) Variant antibodies were tested for their affinity to mouse or cynologous monkey FcγRs using Biacore SPR as described above. Specifically, antibodies were first immobilized on a protein A/G chip to high density, and then followed by injections of the extracellular domain of the mouse or cynologous monkey FcγR of interest. Both association and dissociation phases were tracked in real time using the Biacore technology.

mFcγRIIb [9] = biological target: T5, mFcγRIIb; assay: SPR, off-rate
Protocol: as §1, §2

cynoFcγRIIb [10] = biological target: T6, cynoFcγRIIb; assay: SPR, off-rate
Protocol: as §1, §2

cynoFcγRIIIa [11] = biological target: T7, cynoFcγRIIIa; assay: SPR, off-rate
Protocol: as §1, §2

mFcγRIV [12] = biological target: T8, mFcγRIV; assay: SPR
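For Fold vs WT IgG1 (off-rate) in this document: fold improvement over WT IgG1 so higher means slower dissociation than WT.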

B1: L234D/S267E (antibody, human IgG1, kappa)
heavy: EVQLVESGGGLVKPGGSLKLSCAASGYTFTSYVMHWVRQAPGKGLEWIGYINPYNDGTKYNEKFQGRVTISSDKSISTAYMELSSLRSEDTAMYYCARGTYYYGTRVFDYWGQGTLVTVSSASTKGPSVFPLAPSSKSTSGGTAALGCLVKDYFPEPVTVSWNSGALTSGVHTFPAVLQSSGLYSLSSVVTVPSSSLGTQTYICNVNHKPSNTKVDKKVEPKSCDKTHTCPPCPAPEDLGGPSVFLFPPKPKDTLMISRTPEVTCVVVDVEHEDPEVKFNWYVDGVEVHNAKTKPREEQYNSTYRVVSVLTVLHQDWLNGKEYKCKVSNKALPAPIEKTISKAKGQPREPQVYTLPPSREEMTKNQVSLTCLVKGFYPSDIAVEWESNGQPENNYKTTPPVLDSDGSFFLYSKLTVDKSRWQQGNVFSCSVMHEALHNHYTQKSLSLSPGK
light: DIVMTQSPATLSLSPGERATLSCRSSKSLQNVNGNTYLYWFQQKPGQSPQLLIYRMSNLNSGVPDRFSGSGSGTEFTLTISSLEPEDFAVYYCMQHLEYPITFGAGTKLEIKRTVAAPSVFIFPPSDEQLKSGTASVVCLLNNFYPREAKVQWKVDNALQSGNSQESVTEQDSKDSTYSLSSTLTLSKADYEKHKVYACEVTHQGLSSPVTKSFNRGEC
notes: HuAM4G7 anti-CD19 IgG1 (m1) with these Fc substitutions, EU index; copies: 2 + 2
- Fold vs WT IgG1 [1]: 21.7 fold
- Kd [1]: 67.8 nM
- Fold vs WT IgG1 [2]: 0.0286 fold
- Kd [2]: 11.5 nM
- Fold vs WT IgG1 [3]: 12.7 fold
- Kd [3]: 67.7 nM
- Fold vs WT IgG1 [4]: 0.14 fold
- Kd [4]: 1370 nM
- Fold vs WT IgG1 (off-rate) (mFcγRIIb [5]): 1.04 fold
- Fold vs WT IgG1 (off-rate) (cynoFcγRIIb [6]): 0.495 fold
- Fold vs WT IgG1 (off-rate) (cynoFcγRIIIa [7]): 0.116 fold
- binding result (mFcγRIV [8]): no binding

B2: L234Q (antibody, human IgG1, kappa)
heavy: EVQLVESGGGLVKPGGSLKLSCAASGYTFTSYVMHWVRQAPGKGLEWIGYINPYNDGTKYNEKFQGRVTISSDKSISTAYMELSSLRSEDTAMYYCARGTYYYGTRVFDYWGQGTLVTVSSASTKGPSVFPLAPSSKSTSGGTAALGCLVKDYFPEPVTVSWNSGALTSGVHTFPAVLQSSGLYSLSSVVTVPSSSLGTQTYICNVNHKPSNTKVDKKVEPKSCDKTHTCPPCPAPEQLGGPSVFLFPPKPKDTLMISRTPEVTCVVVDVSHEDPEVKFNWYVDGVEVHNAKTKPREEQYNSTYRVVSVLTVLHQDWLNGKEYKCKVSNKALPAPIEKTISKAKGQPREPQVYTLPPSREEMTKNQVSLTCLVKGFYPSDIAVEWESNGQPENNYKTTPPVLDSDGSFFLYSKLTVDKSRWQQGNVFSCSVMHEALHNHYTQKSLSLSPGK
light: DIVMTQSPATLSLSPGERATLSCRSSKSLQNVNGNTYLYWFQQKPGQSPQLLIYRMSNLNSGVPDRFSGSGSGTEFTLTISSLEPEDFAVYYCMQHLEYPITFGAGTKLEIKRTVAAPSVFIFPPSDEQLKSGTASVVCLLNNFYPREAKVQWKVDNALQSGNSQESVTEQDSKDSTYSLSSTLTLSKADYEKHKVYACEVTHQGLSSPVTKSFNRGEC
notes: HuAM4G7 anti-CD19 IgG1 (m1) with this Fc substitution, EU index; copies: 2 + 2
- Fold vs WT IgG1 [1]: 0.147 fold
- Kd [1]: 10000 nM
- Fold vs WT IgG1 [3]: 0.0372 fold
- Kd [3]: 23100 nM
- Fold vs WT IgG1 (off-rate) (cynoFcγRIIIa [7]): 0.379 fold
- binding result (mFcγRIIb [9]): no binding
- binding result (mFcγRIV [8]): no binding
- binding result (cynoFcγRIIb [10]): no binding

B3: G236F (antibody, human IgG1, kappa)
heavy: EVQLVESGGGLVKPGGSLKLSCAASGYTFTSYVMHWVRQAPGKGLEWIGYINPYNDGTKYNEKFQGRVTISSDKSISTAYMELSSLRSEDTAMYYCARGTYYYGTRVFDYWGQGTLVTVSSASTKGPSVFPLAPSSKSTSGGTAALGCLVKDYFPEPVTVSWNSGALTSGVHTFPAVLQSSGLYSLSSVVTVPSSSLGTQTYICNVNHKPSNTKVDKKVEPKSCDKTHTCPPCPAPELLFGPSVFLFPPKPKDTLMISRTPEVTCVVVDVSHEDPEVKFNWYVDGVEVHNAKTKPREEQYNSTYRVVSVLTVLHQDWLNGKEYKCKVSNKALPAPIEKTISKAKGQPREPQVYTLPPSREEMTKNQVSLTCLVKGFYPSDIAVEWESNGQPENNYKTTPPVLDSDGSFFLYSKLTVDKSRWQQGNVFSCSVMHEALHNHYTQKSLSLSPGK
light: DIVMTQSPATLSLSPGERATLSCRSSKSLQNVNGNTYLYWFQQKPGQSPQLLIYRMSNLNSGVPDRFSGSGSGTEFTLTISSLEPEDFAVYYCMQHLEYPITFGAGTKLEIKRTVAAPSVFIFPPSDEQLKSGTASVVCLLNNFYPREAKVQWKVDNALQSGNSQESVTEQDSKDSTYSLSSTLTLSKADYEKHKVYACEVTHQGLSSPVTKSFNRGEC
notes: as for B2
- Fold vs WT IgG1 [1]: 0.0147 fold
- Kd [1]: 100000 nM
- Fold vs WT IgG1 [3]: 0.00859 fold
- Kd [3]: 100000 nM
- Fold vs WT IgG1 (off-rate) (cynoFcγRIIIa [7]): 0.138 fold
- binding result (mFcγRIIb [9]): no binding
- binding result (mFcγRIV [8]): no binding
- binding result (cynoFcγRIIb [10]): no binding

B4: G236V (antibody, human IgG1, kappa)
heavy: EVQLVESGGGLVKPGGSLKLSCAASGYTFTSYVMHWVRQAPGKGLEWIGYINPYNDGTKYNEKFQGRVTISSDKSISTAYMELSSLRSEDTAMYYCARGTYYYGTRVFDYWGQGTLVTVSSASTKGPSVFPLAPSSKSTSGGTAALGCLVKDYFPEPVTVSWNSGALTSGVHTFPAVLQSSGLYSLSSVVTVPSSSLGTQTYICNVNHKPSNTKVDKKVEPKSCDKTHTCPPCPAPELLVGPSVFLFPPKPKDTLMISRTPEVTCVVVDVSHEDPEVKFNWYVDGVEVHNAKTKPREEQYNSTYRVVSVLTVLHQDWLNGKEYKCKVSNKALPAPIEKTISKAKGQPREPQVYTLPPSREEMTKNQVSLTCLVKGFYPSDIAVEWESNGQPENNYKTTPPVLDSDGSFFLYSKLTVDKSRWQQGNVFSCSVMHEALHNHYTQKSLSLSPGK
light: DIVMTQSPATLSLSPGERATLSCRSSKSLQNVNGNTYLYWFQQKPGQSPQLLIYRMSNLNSGVPDRFSGSGSGTEFTLTISSLEPEDFAVYYCMQHLEYPITFGAGTKLEIKRTVAAPSVFIFPPSDEQLKSGTASVVCLLNNFYPREAKVQWKVDNALQSGNSQESVTEQDSKDSTYSLSSTLTLSKADYEKHKVYACEVTHQGLSSPVTKSFNRGEC
notes: as for B2
- Fold vs WT IgG1 [1]: 0.0147 fold
- Kd [1]: 100000 nM
- Fold vs WT IgG1 [3]: 0.106 fold
- Kd [3]: 8080 nM
- Fold vs WT IgG1 (off-rate) (cynoFcγRIIb [6]): 0.703 fold
- binding result (mFcγRIIb [9]): no binding
- binding result (mFcγRIV [8]): no binding
- binding result (cynoFcγRIIIa [11]): no binding

B5: S267E/L328H (antibody, human IgG1, kappa)
heavy: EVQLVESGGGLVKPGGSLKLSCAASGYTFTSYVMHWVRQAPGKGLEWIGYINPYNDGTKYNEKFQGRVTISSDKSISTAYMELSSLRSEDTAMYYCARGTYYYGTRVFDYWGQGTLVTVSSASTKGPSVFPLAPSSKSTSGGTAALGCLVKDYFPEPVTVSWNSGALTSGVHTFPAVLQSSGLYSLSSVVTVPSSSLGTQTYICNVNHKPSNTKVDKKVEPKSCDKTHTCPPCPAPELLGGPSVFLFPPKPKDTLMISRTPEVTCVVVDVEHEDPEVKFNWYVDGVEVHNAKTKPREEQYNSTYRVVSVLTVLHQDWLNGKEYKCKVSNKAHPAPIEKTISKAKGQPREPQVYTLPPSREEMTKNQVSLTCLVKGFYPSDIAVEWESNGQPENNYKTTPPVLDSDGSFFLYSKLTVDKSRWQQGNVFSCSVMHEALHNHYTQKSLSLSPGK
light: DIVMTQSPATLSLSPGERATLSCRSSKSLQNVNGNTYLYWFQQKPGQSPQLLIYRMSNLNSGVPDRFSGSGSGTEFTLTISSLEPEDFAVYYCMQHLEYPITFGAGTKLEIKRTVAAPSVFIFPPSDEQLKSGTASVVCLLNNFYPREAKVQWKVDNALQSGNSQESVTEQDSKDSTYSLSSTLTLSKADYEKHKVYACEVTHQGLSSPVTKSFNRGEC
notes: as for B1
- Fold vs WT IgG1 [1]: 5.17 fold
- Kd [1]: 284 nM
- Fold vs WT IgG1 [3]: 4.64 fold
- Kd [3]: 185 nM
- Fold vs WT IgG1 (off-rate) (mFcγRIIb [5]): 1.11 fold
- Fold vs WT IgG1 (off-rate) (cynoFcγRIIb [6]): 0.42 fold
- binding result (mFcγRIV [8]): no binding
- binding result (cynoFcγRIIIa [11]): no binding

B6: L235R (antibody, human IgG1, kappa)
heavy: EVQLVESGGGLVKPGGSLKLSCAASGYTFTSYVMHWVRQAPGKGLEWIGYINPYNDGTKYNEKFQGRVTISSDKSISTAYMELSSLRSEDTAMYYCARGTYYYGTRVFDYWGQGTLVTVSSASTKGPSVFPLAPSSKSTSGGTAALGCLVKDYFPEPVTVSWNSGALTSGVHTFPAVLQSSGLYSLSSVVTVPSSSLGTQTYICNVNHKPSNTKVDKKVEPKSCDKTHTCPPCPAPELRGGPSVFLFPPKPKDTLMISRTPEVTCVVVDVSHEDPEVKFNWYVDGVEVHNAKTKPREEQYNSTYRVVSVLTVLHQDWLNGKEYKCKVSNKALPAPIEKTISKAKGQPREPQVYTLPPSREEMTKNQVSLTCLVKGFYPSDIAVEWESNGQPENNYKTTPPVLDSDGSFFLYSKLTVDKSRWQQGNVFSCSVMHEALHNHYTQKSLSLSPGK
light: DIVMTQSPATLSLSPGERATLSCRSSKSLQNVNGNTYLYWFQQKPGQSPQLLIYRMSNLNSGVPDRFSGSGSGTEFTLTISSLEPEDFAVYYCMQHLEYPITFGAGTKLEIKRTVAAPSVFIFPPSDEQLKSGTASVVCLLNNFYPREAKVQWKVDNALQSGNSQESVTEQDSKDSTYSLSSTLTLSKADYEKHKVYACEVTHQGLSSPVTKSFNRGEC
notes: as for B2
- Fold vs WT IgG1 [1]: 5.58 fold
- Kd [1]: 263 nM
- Fold vs WT IgG1 [3]: 1.02 fold
- Kd [3]: 838 nM
- Fold vs WT IgG1 (off-rate) (mFcγRIV [12]): 0.347 fold
- binding result (mFcγRIIb [9]): no binding
- binding result (cynoFcγRIIb [10]): no binding
- binding result (cynoFcγRIIIa [11]): no binding

B7: L234G (antibody, human IgG1, kappa)
heavy: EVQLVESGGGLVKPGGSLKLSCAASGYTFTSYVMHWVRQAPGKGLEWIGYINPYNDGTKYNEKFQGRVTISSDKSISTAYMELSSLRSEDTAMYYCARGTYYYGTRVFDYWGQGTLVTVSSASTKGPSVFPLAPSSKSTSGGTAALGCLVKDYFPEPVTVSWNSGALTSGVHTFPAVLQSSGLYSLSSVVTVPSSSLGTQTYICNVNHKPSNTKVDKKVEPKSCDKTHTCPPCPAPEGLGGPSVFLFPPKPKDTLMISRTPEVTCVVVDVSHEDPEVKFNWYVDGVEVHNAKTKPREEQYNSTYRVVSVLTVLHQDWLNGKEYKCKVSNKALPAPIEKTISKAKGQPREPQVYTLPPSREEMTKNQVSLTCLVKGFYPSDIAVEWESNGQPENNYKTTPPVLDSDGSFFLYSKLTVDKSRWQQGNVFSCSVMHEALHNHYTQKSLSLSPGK
light: DIVMTQSPATLSLSPGERATLSCRSSKSLQNVNGNTYLYWFQQKPGQSPQLLIYRMSNLNSGVPDRFSGSGSGTEFTLTISSLEPEDFAVYYCMQHLEYPITFGAGTKLEIKRTVAAPSVFIFPPSDEQLKSGTASVVCLLNNFYPREAKVQWKVDNALQSGNSQESVTEQDSKDSTYSLSSTLTLSKADYEKHKVYACEVTHQGLSSPVTKSFNRGEC
notes: as for B2
- Fold vs WT IgG1 [1]: 0.147 fold
- Kd [1]: 10000 nM
- Fold vs WT IgG1 [3]: 0.0859 fold
- Kd [3]: 10000 nM
- Fold vs WT IgG1 (off-rate) (cynoFcγRIIIa [7]): 0.113 fold
- binding result (mFcγRIIb [9]): no binding
- binding result (mFcγRIV [8]): no binding
- binding result (cynoFcγRIIb [10]): no binding

B8: S267E/N325L (antibody, human IgG1, kappa)
heavy: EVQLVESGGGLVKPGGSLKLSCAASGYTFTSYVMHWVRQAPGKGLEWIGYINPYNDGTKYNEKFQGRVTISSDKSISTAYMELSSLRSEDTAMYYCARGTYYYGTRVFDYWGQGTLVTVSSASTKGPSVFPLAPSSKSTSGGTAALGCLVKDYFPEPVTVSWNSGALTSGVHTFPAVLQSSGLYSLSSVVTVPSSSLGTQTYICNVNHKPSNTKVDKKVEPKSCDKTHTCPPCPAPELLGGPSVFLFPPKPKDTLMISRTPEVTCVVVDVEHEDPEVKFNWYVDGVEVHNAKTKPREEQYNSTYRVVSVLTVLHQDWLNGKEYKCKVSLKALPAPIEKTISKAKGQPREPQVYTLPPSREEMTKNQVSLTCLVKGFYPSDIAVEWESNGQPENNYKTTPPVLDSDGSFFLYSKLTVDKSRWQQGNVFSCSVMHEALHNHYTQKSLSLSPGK
light: DIVMTQSPATLSLSPGERATLSCRSSKSLQNVNGNTYLYWFQQKPGQSPQLLIYRMSNLNSGVPDRFSGSGSGTEFTLTISSLEPEDFAVYYCMQHLEYPITFGAGTKLEIKRTVAAPSVFIFPPSDEQLKSGTASVVCLLNNFYPREAKVQWKVDNALQSGNSQESVTEQDSKDSTYSLSSTLTLSKADYEKHKVYACEVTHQGLSSPVTKSFNRGEC
notes: as for B1
- Fold vs WT IgG1 [1]: 31.5 fold
- Kd [1]: 46.6 nM
- Fold vs WT IgG1 [3]: 41.5 fold
- Kd [3]: 20.7 nM
- Fold vs WT IgG1 (off-rate) (mFcγRIV [12]): 0.24 fold
- binding result (mFcγRIIb [9]): no binding
- binding result (cynoFcγRIIb [10]): no binding
- binding result (cynoFcγRIIIa [11]): no binding

B9: G236E/S267E (antibody, human IgG1, kappa)
heavy: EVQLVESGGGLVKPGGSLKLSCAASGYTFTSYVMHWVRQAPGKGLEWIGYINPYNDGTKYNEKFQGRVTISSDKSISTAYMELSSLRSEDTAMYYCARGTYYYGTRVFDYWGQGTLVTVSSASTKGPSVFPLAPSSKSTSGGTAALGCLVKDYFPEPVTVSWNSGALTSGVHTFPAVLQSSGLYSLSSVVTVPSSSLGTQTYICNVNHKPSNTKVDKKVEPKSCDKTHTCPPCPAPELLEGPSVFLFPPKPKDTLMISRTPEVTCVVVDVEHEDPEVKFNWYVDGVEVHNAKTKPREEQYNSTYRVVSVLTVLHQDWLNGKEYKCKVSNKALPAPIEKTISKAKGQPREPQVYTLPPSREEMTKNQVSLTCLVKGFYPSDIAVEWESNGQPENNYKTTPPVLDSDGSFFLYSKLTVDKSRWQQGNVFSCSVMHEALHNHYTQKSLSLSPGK
light: DIVMTQSPATLSLSPGERATLSCRSSKSLQNVNGNTYLYWFQQKPGQSPQLLIYRMSNLNSGVPDRFSGSGSGTEFTLTISSLEPEDFAVYYCMQHLEYPITFGAGTKLEIKRTVAAPSVFIFPPSDEQLKSGTASVVCLLNNFYPREAKVQWKVDNALQSGNSQESVTEQDSKDSTYSLSSTLTLSKADYEKHKVYACEVTHQGLSSPVTKSFNRGEC
notes: as for B1
- Fold vs WT IgG1 [1]: 11.4 fold
- Kd [1]: 129 nM
- Fold vs WT IgG1 [3]: 36.5 fold
- Kd [3]: 23.5 nM
- Fold vs WT IgG1 (off-rate) (cynoFcγRIIIa [7]): 0.327 fold
- binding result (mFcγRIIb [9]): no binding
- binding result (mFcγRIV [8]): no binding
- binding result (cynoFcγRIIb [10]): no binding
